Publication PMC9464147
Values joined by “and” are separate entries in the source; they are usually repeats but may differ in a detail not shown here. Equal values may be shown once.

Experiments:
[1] = target: Salivary CA VI (carbonic anhydrase VI purified from human saliva) (human) (UniProt P23280); assay: SEC; analytical SEC, Superdex 200 5/150 GL, 50 µg protein, 50 mM Tris-HCl pH 7.5, 0.1 ml/min, +12 °C; MW from a standard curve, oligomeric state calculated with a monomer MW of 33.57 kDa
[2] = target: Salivary CA VI (carbonic anhydrase VI purified from human saliva) (human) (UniProt P23280); assay: SEC; analytical SEC, Superdex 200 5/150 GL, 50 µg protein, 0.1 M Na-acetate buffer pH 5.0, 0.1 ml/min, +12 °C; MW from a standard curve, oligomeric state calculated with a monomer MW of 33.57 kDa
[3] = target: Milk CA VI (carbonic anhydrase VI purified from human milk) (human) (UniProt P23280); assay: SDS-PAGE without cross-linker; milk CA VI without DSS treatment (lane 7), boiled in sample buffer with SDS and reducing agent, SDS-PAGE, densitometry of bands
[4] = target: Milk CA VI (carbonic anhydrase VI purified from human milk) (human) (UniProt P23280); assay: SEC; analytical SEC, Superdex 200 5/150 GL, 50 µg protein, 50 mM Tris-HCl pH 7.5, 0.1 ml/min, +12 °C; MW from a standard curve, oligomeric state calculated with a monomer MW of 33.57 kDa
[5] = target: Milk CA VI (carbonic anhydrase VI purified from human milk) (human) (UniProt P23280); assay: SEC; analytical SEC, Superdex 200 5/150 GL, 50 µg protein, 0.1 M Na-acetate buffer pH 5.0, 0.1 ml/min, +12 °C; MW from a standard curve, oligomeric state calculated with a monomer MW of 33.57 kDa
[6] = target: Milk CA VI (carbonic anhydrase VI purified from human milk) (human) (UniProt P23280); assay: cross-linking; DSS in 25- and 50-fold molar excess over protein (Table 3: 50-fold), milk CA VI 0.25-2 mg/ml in 100 mM Na2HPO4, 0.15 M NaCl pH 7.5, RT 30 min, quenched with Tris-HCl; reducing SDS-PAGE, densitometry of bands

Question: With “Salivary CA VI (carbonic anhydrase VI purified from human saliva) (from UniProt P23280 18-308) (enzyme)” as the substance, how does the stoichiometry N [1] read?
Answer: Its stoichiometry N is 14.

Question: What about the stoichiometry N [2] of the same substance?
Answer: The stoichiometry N was 6.

Question: Which % of the lane in the dimer band (no DSS) [3] does the source give for “Milk CA VI (carbonic anhydrase VI purified from human milk) (from UniProt P23280 18-308) (enzyme)” here?
Answer: Its % of the lane in the dimer band (no DSS) is 9.67%.

Question: What about the stoichiometry N [4] of the same substance?
Answer: Its stoichiometry N is 15 and 6.

Question: What about the stoichiometry N [5] of the same substance?
Answer: Its stoichiometry N is 7.

Question: And the % of the lane in the dimer band (0.25 mg/ml) [6]?
Answer: The % of the lane in the dimer band (0.25 mg/ml) was 16.1%.

Question: What about the % of the lane in the dimer band (0.5 mg/ml) [6] of the same substance?
Answer: The % of the lane in the dimer band (0.5 mg/ml) was 9.88%.

Question: What about the % of the lane in the dimer band (0.75 mg/ml) [6] of the same substance?
Answer: Its % of the lane in the dimer band (0.75 mg/ml) is 19.4%.

Question: What about the % of the lane in the dimer band (1 mg/ml) [6] of the same substance?
Answer: Its % of the lane in the dimer band (1 mg/ml) is 17%.

Question: And the % of the lane in the dimer band (1.5 mg/ml) [6]?
Answer: Its % of the lane in the dimer band (1.5 mg/ml) is 16.9%.

Question: And the % of the lane in the dimer band (2 mg/ml) [6]?
Answer: The % of the lane in the dimer band (2 mg/ml) was 19%.

Question: And the % of the lane in the hexamer band (0.25 mg/ml) [6]?
Answer: Its % of the lane in the hexamer band (0.25 mg/ml) is 22.3%.

Question: What about the % of the lane in the hexamer band (0.5 mg/ml) [6] of the same substance?
Answer: Its % of the lane in the hexamer band (0.5 mg/ml) is 12.8%.

Question: And the % of the lane in the hexamer band (0.75 mg/ml) [6]?
Answer: The % of the lane in the hexamer band (0.75 mg/ml) was 20.3%.

Question: What about the % of the lane in the hexamer band (1 mg/ml) [6] of the same substance?
Answer: The % of the lane in the hexamer band (1 mg/ml) was 23.5%.

Question: What about the % of the lane in the hexamer band (1.5 mg/ml) [6] of the same substance?
Answer: The % of the lane in the hexamer band (1.5 mg/ml) was 20.4%.

Question: What about the % of the lane in the hexamer band (2 mg/ml) [6] of the same substance?
Answer: The % of the lane in the hexamer band (2 mg/ml) was 20.8%.

Question: What about the % of the lane in the tetra- or pentamer band (0.25 mg/ml) [6] of the same substance?
Answer: The % of the lane in the tetra- or pentamer band (0.25 mg/ml) was 14.1%.

Question: And the % of the lane in the tetra- or pentamer band (0.5 mg/ml) [6]?
Answer: Its % of the lane in the tetra- or pentamer band (0.5 mg/ml) is 10.2%.

Question: And the % of the lane in the tetra- or pentamer band (0.75 mg/ml) [6]?
Answer: The % of the lane in the tetra- or pentamer band (0.75 mg/ml) was 15.2%.

Question: What about the % of the lane in the tetra- or pentamer band (1 mg/ml) [6] of the same substance?
Answer: Its % of the lane in the tetra- or pentamer band (1 mg/ml) is 13.2%.

Question: What about the % of the lane in the tetra- or pentamer band (1.5 mg/ml) [6] of the same substance?
Answer: The % of the lane in the tetra- or pentamer band (1.5 mg/ml) was 12.7%.

Question: And the % of the lane in the tetra- or pentamer band (2 mg/ml) [6]?
Answer: Its % of the lane in the tetra- or pentamer band (2 mg/ml) is 12.1%.

Question: What about the stoichiometry N [6] of the same substance?
Answer: The stoichiometry N was 5.

Question: And the stoichiometry N ([6]; dimer band)?
Answer: The stoichiometry N was 2.

Question: What about the stoichiometry N ([6]; hexamer band) of the same substance?
Answer: The stoichiometry N was 6.
